For one molecule, Total and Unique results are on record in patent US20210388040A1.

The assay concerns the target SMARCD1 (human) (UniProt Q96GM5). Kind of assay: HA-bait purification from HEK-293T nuclear extract, mass spectrometry, peptide count.

Sequence of SMARCD1 (human) (Q96GM5 whole entry): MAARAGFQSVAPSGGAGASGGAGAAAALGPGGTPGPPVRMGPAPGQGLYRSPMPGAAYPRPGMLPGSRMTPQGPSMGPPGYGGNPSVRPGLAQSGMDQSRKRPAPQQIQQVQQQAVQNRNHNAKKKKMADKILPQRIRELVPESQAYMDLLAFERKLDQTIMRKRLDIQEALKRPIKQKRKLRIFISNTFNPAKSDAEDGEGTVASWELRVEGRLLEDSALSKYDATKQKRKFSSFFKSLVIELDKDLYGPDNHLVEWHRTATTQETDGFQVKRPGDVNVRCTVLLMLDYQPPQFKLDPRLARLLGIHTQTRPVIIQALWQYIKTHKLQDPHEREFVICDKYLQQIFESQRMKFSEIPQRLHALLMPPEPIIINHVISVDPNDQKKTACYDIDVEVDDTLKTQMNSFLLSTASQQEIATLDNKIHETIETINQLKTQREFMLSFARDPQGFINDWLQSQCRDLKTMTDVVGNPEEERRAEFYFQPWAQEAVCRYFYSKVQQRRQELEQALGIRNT

B1: HA-BRD7 (protein, human)
chain: MYPYDVPDYAMGKKHKKHKSDKHLYEEYVEKPLKLVLKVGGNEVTELSTGSSGHDSSLFEDKNDHDKHKDRKRKKRKKGEKQIPGEEKGRKRRRVKEDKKKRDRDRVENEAEKDLQCHAPVRLDLPPEKPLTSSLAKQEEVEQTPLQEALNQLMRQLQRKDPSAFFSFPVTDFIAPGYSMIIKHPMDFSTMKEKIKNNDYQSIEELKDNFKLMCTNAMIYNKPETIYYKAAKKLLHSGMKILSQERIQSLKQSIDFMADLQKTRKQKDGTDTSQSGEDGGCWQREREDSGDAEAHAFKSPSKENKKKDKDMLEDKFKSNNLEREQEQLDRIVKESGGKLTRRLVNSQCEFERRKPDGTTTLGLLHPVDPIVGEPGYCPVRLGMTTGRLQSGVNTLQGFKEDKRNKVTPVLYLNYGPYSSYAPHYDSTFANISKDDSDLIYSTYGEDSDLPSDFSIHEFLATCQDYPYVMADSLLDVLTKGGHSRTLQEMEMSLPEDEGHTRTLDTAKEMEITEVEPPGRLDSSTQDRLIALKAVTNFGVPVEVFDSEEAEIFQKKLDETTRLLRELQEAQNERLSTRPPPNMICLLGPSYREMHLAEQVTNNLKELAQQVTPGDIVSTYGVRKAMGISIPSPVMENNFVDLTEDTEEPKKTDVAECGPGGS
In turn, B1 yielded a Total of 73 peptides and a Unique of 44 peptides.
